Results as given in patent US20220242906A1 (AGENCY FOR SCIENCE TECHNOLOGY AND RESEARCH, published 2022).

Molecular target: T1, elongation initiation factor 4E (eIF4E) (UniProt P06730 2-217, limits assumed)
T1 construct: mature; In SPR it was amine-coupled to a CM5 chip with m7GTP present; also called full-length eIF4E; GS-eIF4E (biotinylated form used only for phage panning)
Assay: SPR (Biacore T100), eIF4E immobilised on CM5 chip, peptide as analyte
Protocol: Running buffer consisted of 10 mM Hepes pH 7.6, 0.15 M NaCl, and 0.1% Tween20. Stock/DMSO diluted peptide solutions were diluted into 1.03× running buffer to make a peptide solution with 3% DMSO final concentration. […] Surface Plasmon resonance experiments were performed on a Biacore T100 machine.
Pure eIF4E was immnobilized on a CM5 sensor chip. The CM5 chip was conditioned with a 6 s injection of 100 mM HCL, followed by a 6 s injection of 0.1% SDS and completed with a 6 s injection of 50 mM NaOH at a flow rate of 100 μl/min. Activation of the sensor chip surface was performed with a mixture of NHS (115 mg ml⁻¹) and EDC (750 mg ml⁻¹) for 7 min at 10 μl min⁻¹. Purified eIF4E was diluted with 10 mM sodium acetate buffer (pH 5.0) to a final concentration of 0.5 μM with m⁷GTP present in a 2:1 ratio in order to stabilize eIF4E. The amount of eIF4E immobilized on the activated surface was controlled by altering the contact time of the protein solution and was approximately 1000 RU. After the immobilization of the protein, a 7-min injection (at 10 μl min⁻¹) of 1 M ethanolamine (pH 8.5) was used to quench excess active succinimide ester groups.
Six buffer blanks were first injected to equilibrate the instrument fully and then a solvent correction curve was performed followed by a further two blank injections. […] Using a flow rate of 50 μl/min, compounds were injected for 60 s and dissociation was monitored for 180 s. The data collection rate was 10 Hz. Kds were determined using the BiaEvaluation software (Biacore) and calculated from both the response of the eIF4E coated CM5 chips at equilibrium and also kinetically from the dissociation and association phase data for each of the peptides. Both the equilibrium and kinetic data were fitted to 1:1 binding models. Each individual peptide Kd was determined from three separate titrations. Within each titration at least two concentration points were duplicated to ensure stability and robustness of the chip surface.

T1 sequence (P06730 2-217 limits assumed): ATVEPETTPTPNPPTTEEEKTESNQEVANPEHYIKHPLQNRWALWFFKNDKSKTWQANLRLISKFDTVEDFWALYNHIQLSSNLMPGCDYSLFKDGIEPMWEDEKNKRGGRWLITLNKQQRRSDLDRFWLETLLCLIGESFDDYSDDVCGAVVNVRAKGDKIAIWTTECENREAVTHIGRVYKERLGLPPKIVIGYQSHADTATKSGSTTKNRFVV

| Binder | Kd [µM] | Fold change (KD against EE-2) [fold] |
| --- | --- | --- |
| ACDMGFFQDCG (HELM PEPTIDE1{A.C.D.M.G.F.F.Q.D.C.G.[am]}$PEPTIDE1,PEPTIDE1,2:R3-10:R3$$$V2.0; SMILES CSCC[C@@H]1NC(=O)[C@H](CC(=O)O)NC(=O)[C@@H](NC(=O)[C@H](C)N)CSSC[C@@H](C(=O)NCC(N)=O)NC(=O)[C@H](CC(=O)O)NC(=O)[C@H](CCC(N)=O)NC(=O)[C@H](Cc2ccccc2)NC(=O)[C@H](Cc2ccccc2)NC(=O)CNC1=O, EE-02 with E3D) [EE-19] | 26 |  |
| ACEMGWFQDCG (HELM PEPTIDE1{A.C.E.M.G.W.F.Q.D.C.G.[am]}$PEPTIDE1,PEPTIDE1,2:R3-10:R3$$$V2.0; SMILES CSCC[C@@H]1NC(=O)[C@H](CCC(=O)O)NC(=O)[C@@H](NC(=O)[C@H](C)N)CSSC[C@@H](C(=O)NCC(N)=O)NC(=O)[C@H](CC(=O)O)NC(=O)[C@H](CCC(N)=O)NC(=O)[C@H](Cc2ccccc2)NC(=O)[C@H](Cc2c[nH]c3ccccc23)NC(=O)CNC1=O, EE-02 with F6W) [EE-31] | 5.9 |  |
| ACEMGYYQDCG (HELM PEPTIDE1{A.C.E.M.G.Y.Y.Q.D.C.G.[am]}$PEPTIDE1,PEPTIDE1,2:R3-10:R3$$$V2.0; SMILES CSCC[C@@H]1NC(=O)[C@H](CCC(=O)O)NC(=O)[C@@H](NC(=O)[C@H](C)N)CSSC[C@@H](C(=O)NCC(N)=O)NC(=O)[C@H](CC(=O)O)NC(=O)[C@H](CCC(N)=O)NC(=O)[C@H](Cc2ccc(O)cc2)NC(=O)[C@H](Cc2ccc(O)cc2)NC(=O)CNC1=O, EE-02 with F6Y and F7Y) [EE-37] | 0.35 |  |
| ACEMGYFQDCG (HELM PEPTIDE1{A.C.E.M.G.Y.F.Q.D.C.G.[am]}$PEPTIDE1,PEPTIDE1,2:R3-10:R3$$$V2.0; SMILES CSCC[C@@H]1NC(=O)[C@H](CCC(=O)O)NC(=O)[C@@H](NC(=O)[C@H](C)N)CSSC[C@@H](C(=O)NCC(N)=O)NC(=O)[C@H](CC(=O)O)NC(=O)[C@H](CCC(N)=O)NC(=O)[C@H](Cc2ccccc2)NC(=O)[C@H](Cc2ccc(O)cc2)NC(=O)CNC1=O, EE-02 with F6Y) [EE-30 (ACEMGYFQDCG)] | 0.085 |  |
| ACEIGFFQDCG (HELM PEPTIDE1{A.C.E.I.G.F.F.Q.D.C.G.[am]}$PEPTIDE1,PEPTIDE1,2:R3-10:R3$$$V2.0; SMILES CC[C@H](C)[C@@H]1NC(=O)[C@H](CCC(=O)O)NC(=O)[C@@H](NC(=O)[C@H](C)N)CSSC[C@@H](C(=O)NCC(N)=O)NC(=O)[C@H](CC(=O)O)NC(=O)[C@H](CCC(N)=O)NC(=O)[C@H](Cc2ccccc2)NC(=O)[C@H](Cc2ccccc2)NC(=O)CNC1=O, EE-02 with M4I) [EE-20] | 1.6 |  |
| ACEMGFWQDCG (HELM PEPTIDE1{A.C.E.M.G.F.W.Q.D.C.G.[am]}$PEPTIDE1,PEPTIDE1,2:R3-10:R3$$$V2.0; SMILES CSCC[C@@H]1NC(=O)[C@H](CCC(=O)O)NC(=O)[C@@H](NC(=O)[C@H](C)N)CSSC[C@@H](C(=O)NCC(N)=O)NC(=O)[C@H](CC(=O)O)NC(=O)[C@H](CCC(N)=O)NC(=O)[C@H](Cc2c[nH]c3ccccc23)NC(=O)[C@H](Cc2ccccc2)NC(=O)CNC1=O, EE-02 with F7W) [EE-36] | 2.6 |  |
| ACEMGFYQDCG (HELM PEPTIDE1{A.C.E.M.G.F.Y.Q.D.C.G.[am]}$PEPTIDE1,PEPTIDE1,2:R3-10:R3$$$V2.0; SMILES CSCC[C@@H]1NC(=O)[C@H](CCC(=O)O)NC(=O)[C@@H](NC(=O)[C@H](C)N)CSSC[C@@H](C(=O)NCC(N)=O)NC(=O)[C@H](CC(=O)O)NC(=O)[C@H](CCC(N)=O)NC(=O)[C@H](Cc2ccc(O)cc2)NC(=O)[C@H](Cc2ccccc2)NC(=O)CNC1=O, EE-02 with F7Y) [EE-35 (ACEMGFYQDCG)] | 0.137 |  |
| ACELGFFQDCG (HELM PEPTIDE1{A.C.E.L.G.F.F.Q.D.C.G.[am]}$PEPTIDE1,PEPTIDE1,2:R3-10:R3$$$V2.0; SMILES CC(C)C[C@@H]1NC(=O)[C@H](CCC(=O)O)NC(=O)[C@@H](NC(=O)[C@H](C)N)CSSC[C@@H](C(=O)NCC(N)=O)NC(=O)[C@H](CC(=O)O)NC(=O)[C@H](CCC(N)=O)NC(=O)[C@H](Cc2ccccc2)NC(=O)[C@H](Cc2ccccc2)NC(=O)CNC1=O, EE-02 with M4L) [EE-21] | 2.5 |  |
| ACEMGFFKDCG (HELM PEPTIDE1{A.C.E.M.G.F.F.K.D.C.G.[am]}$PEPTIDE1,PEPTIDE1,2:R3-10:R3$$$V2.0; SMILES CSCC[C@@H]1NC(=O)[C@H](CCC(=O)O)NC(=O)[C@@H](NC(=O)[C@H](C)N)CSSC[C@@H](C(=O)NCC(N)=O)NC(=O)[C@H](CC(=O)O)NC(=O)[C@H](CCCCN)NC(=O)[C@H](Cc2ccccc2)NC(=O)[C@H](Cc2ccccc2)NC(=O)CNC1=O, EE-02 with Q8K) [EE-39 (ACEMGFFKDCG)] | 0.109 | 0.5 |
| ACEMGFFGDCG (HELM PEPTIDE1{A.C.E.M.G.F.F.G.D.C.G.[am]}$PEPTIDE1,PEPTIDE1,2:R3-10:R3$$$V2.0; SMILES CSCC[C@@H]1NC(=O)[C@H](CCC(=O)O)NC(=O)[C@@H](NC(=O)[C@H](C)N)CSSC[C@@H](C(=O)NCC(N)=O)NC(=O)[C@H](CC(=O)O)NC(=O)CNC(=O)[C@H](Cc2ccccc2)NC(=O)[C@H](Cc2ccccc2)NC(=O)CNC1=O, EE-02 with Q8G) [EE-40] | 0.4 | 1.9 |
| ACEMGFFLDCG (HELM PEPTIDE1{A.C.E.M.G.F.F.L.D.C.G.[am]}$PEPTIDE1,PEPTIDE1,2:R3-10:R3$$$V2.0; SMILES CSCC[C@@H]1NC(=O)[C@H](CCC(=O)O)NC(=O)[C@@H](NC(=O)[C@H](C)N)CSSC[C@@H](C(=O)NCC(N)=O)NC(=O)[C@H](CC(=O)O)NC(=O)[C@H](CC(C)C)NC(=O)[C@H](Cc2ccccc2)NC(=O)[C@H](Cc2ccccc2)NC(=O)CNC1=O, EE-02 with Q8L) [EE-41 (ACEMGFFLDCG)] | 0.19 | 0.9 |
| CEMGFFADC (HELM PEPTIDE1{C.E.M.G.F.F.A.D.C.[am]}$PEPTIDE1,PEPTIDE1,1:R3-9:R3$$$V2.0; SMILES CSCC[C@@H]1NC(=O)[C@H](CCC(=O)O)NC(=O)[C@@H](N)CSSC[C@@H](C(N)=O)NC(=O)[C@H](CC(=O)O)NC(=O)[C@H](C)NC(=O)[C@H](Cc2ccccc2)NC(=O)[C@H](Cc2ccccc2)NC(=O)CNC1=O, EE-02 without A1 and G11 and with Q8A) [EE-44 (CEMGFFADC)] | 0.079 | 0.4 |
| ACEMXFFQDCG (sarcosine (Sar) at position 5; free N-terminal amine; C-terminal amide; disulphide bond between Cys2 and Cys10, EE-02 with G5 replaced by sarcosine) [EE-28] | 4.2 |  |
| ACEXGFFQDCG (norleucine (Nle) at position 4; free N-terminal amine; C-terminal amide; disulphide bond between Cys2 and Cys10, EE-02 with M4 replaced by norleucine) [EE-22] | 0.52 |  |
| ACEXGFFQDCG (HELM PEPTIDE1{A.C.E.[O=C([C@H](CC1CCC1)N[*:1])[*:2]].G.F.F.Q.D.C.G.[am]}$PEPTIDE1,PEPTIDE1,2:R3-10:R3$$$V2.0; SMILES C[C@H](N)C(=O)N[C@H]1CSSC[C@@H](C(=O)NCC(N)=O)NC(=O)[C@H](CC(=O)O)NC(=O)[C@H](CCC(N)=O)NC(=O)[C@H](Cc2ccccc2)NC(=O)[C@H](Cc2ccccc2)NC(=O)CNC(=O)[C@H](CC2CCC2)NC(=O)[C@H](CCC(=O)O)NC1=O, EE-02 with M4 replaced by cyclobutylalanine) [EE-23] | 35 |  |

Molecular target: T1, elongation initiation factor 4E (eIF4E)
Assay: competitive fluorescence anisotropy, panel 'Peptide Interaction Site': displacement of the FAM labelled tracer peptide …-(FAM) (50 nM) from eIF4E (200 nM) [cont'd) B]
Protocol: Apparent Kd values were then determined for a variety of molecules via competitive anisotropy experiments.
[L]ₛₜ and [L]ₜ denote labeled ligand and total unlabeled ligand input concentrations, respectively. Kd2 is the dissociation constant of the interaction between the unlabelled ligand and the protein. In all competitive types of experiments, it is assumed that [P]ₜ>[L]ₛₜ, otherwise considerable amounts of free labeled ligand would always be present and would interfere with measurements. Kd1 is the apparent Kd for the labeled peptide used in the respective experiment. […] Readings were carried out with a Envision Multi-label Reader (PerkinElmer). […] All titrations were carried out in triplicate. Curve-fitting was carried out using Prism 4.0 (GraphPad).

| Binder | IC50 (read off the curve) [µM] |
| --- | --- |
| KKRYSRDQLVAL (Phage-derived linear peptive with the canonical motif; also called PHAGSOL; PhageSol peptide) [PHAGESOL (KKRYSRDQLVAL)] | ~0.4 |
